Data taken from PMC3571961.

Columns and labels:
[1] = molecular target: C-terminal domain of minor ampullate spidroin (CTDMi) from N. antipodiana (Nephila antipodiana); assay: SEC; Superdex 75 PG, 120 ml, 10 mM sodium phosphate pH 6.8 without NaCl, 1 ml/min; apparent molecular weight against standards
[2] = molecular target: Tri-domain miniature fibroin RP-LK-CTDMi of minor ampullate spidroin from N. antipodiana (Nephila antipodiana); assay: as above

Row | stoichiometry N [1] | stoichiometry N [2] | Substance
1 | 2 |  | C-terminal domain of minor ampullate spidroin (CTDMi) from N. antipodiana (domain or fragment)
2 |  | 2 | Tri-domain miniature fibroin RP-LK-CTDMi of minor ampullate spidroin from N. antipodiana (domain or fragment)
